Measured values published in PMC10101095, “The Oxidative Stress-Induced Hypothetical Protein PG_0686 in Porphyromonas gingivalis W83 Is a Novel Diguanylate Cyclase” (Microbiology Spectrum, 2023).
Values joined by “and” are separate entries in the source; they are usually repeats but may differ in a detail not shown here. Equal values may be shown once.

Experiments:
[1] = biological target: the molecule itself; test: native gel or EMSA; native-PAGE of purified rPG_0686 / SEC fractions, with immunoblot
[2] = biological target: the molecule itself; test: SEC; Superdex 200 10/300 GL, 100 uL of 0.2 mg/mL rPG_0686, mobile phase 0.15 M ammonium bicarbonate, 0.1 mL/min; sizes calculated against Bio-Rad 1511901 protein standard

B1: recombinant PG_0686 (rPG_0686) protein of Porphyromonas gingivalis W83 (enzyme, UniProt Q7MWD6 1-517, looked up)
chain: MQVIKTNETFDSLDKSKLERMLDIKEAHREGHLTLEEAKERMKKEVGSISPEEFAAAEQLFKERDQDECQNEDVRTMLQLFEGLINPIRPDLPFGHPIDAYLRENDKAKELLDQADALLERTFIPNPWIELMETLMGYKLHFARKQNQLYSTLEQKGFDRPSTTMWTYDDHIRDEMNKAMSLLREKDYDSFPAAYKEMAIVLRDLMEKEELILYPTSLKLISDKEFEEMKHGDREIGFFLIDMPELDAPAKQSKEAHGQSFMAELGALLAKHGMGTGGQDDKAILDVAEGKLTLEQINLLFRHLPVDISFVDENELVCFYTDTKHRVFPRSKGVIGREVRNCHPPKSVHIVEEIIDKFRRGEQDRAEFWINKPGVFIYIVYVAIRDADGRFRGVMEMMQDCTRIRSLEGSRTLLTWDEEQSPAQGSKESESDTAGEDGIRPDTKLKSLLQRYPQLMDDLPTISSKFTLLRSPMAKVILPVATIKMMSERADIPSDMLIGKLESLIASYNKPDRSEEK
notes: PG_0686, hypothetical protein / diguanylate cyclase of Porphyromonas gingivalis W83; 517 amino acids, 60 kDa; the ORF of the PG_0686 gene cloned in-frame into pEXP5-NT/TOPO; domains hemerythrin (96-215), PAS10 (297-402), DUF-1858 (421-497); Number of copies in the native oligomer differs by method (SEC: decamer and pentamer; native-PAGE: octamer and tetramer); The vector pEXP5-NT/TOPO probably …
Question: B1 was tested. Which “stoichiometry N” value [1] did it give?
Answer: 8 and 4

Question: What about the “stoichiometry N” value [2] of the same protein?
Answer: 10 and 5
